In patent US20040005672A1, “Heterologous production of polyketides” (priority 2002, published 2004):
Entries after “also recorded” stand apart in the source; their conditions may differ.

Legend:
DEBS or DEBS1+TE = details: cited from earlier work
[1] = Stability of acyl-CoAs in TCA and mutase assay buffer (HPLC); type: physicochemical; details: five minutes under the mutase assay conditions, 30° C
Description: To test whether acyl-CoAs degrade in TCA, the following tests were conducted. The CoA mix consisted of 1.6 mM each of malonyl-, methylmalonyl-, succinyl-, acetyl-, and propionyl-CoA, plus 0.5 mM CoA. An aliquot (10 μL) of this mix was added to 100 μL 10% TCA, 50 μL were immediately injected to the HPLC for CoA analysis, and the remainder was promptly frozen on dry ice. The frozen portion was then thawed and loaded immediately to the HPLC. Again, 10 μL of the CoA mix were added to 100 μL 10% TCA, 50 μL were left on ice for 15 minutes and then injected to the HPLC, the remainder was left at 4° C. overnight and injected to the HPLC the next morning. The area under each CoA peak was noted. This same procedure was followed but using a mixture of TCA and buffer A from the mutase assay.
The CoA analysis described here is carried out on cells which are lysed in 10% TCA. […] Thus, the CoAs are stable in TCA and in the mutase assay buffer after the cells are lysed or after the assays are completed, and prior to HPLC analysis.
Although the CoAs are stable in TCA and buffer at 4° C., they degraded at 30° C., the temperature at which the mutase assay was performed. In five minutes under the assay conditions, about 4% of the methylmalonyl-CoA hydrolyzed to CoA. […] Thus, the mutase assay is suboptimal for extremely quantitative results.

[2] = Spontaneous chemical epimerization between (R)- and (S)-mm-CoA; type: physicochemical; details: in 15 minutes
[3] = substrate: C[C@H](C(=O)O)C(=O)SCCNC(=O)CCNC(=O)[C@H](O)C(C)(C)COP(=O)(O)OP(=O)(O)OC[C@H]1O[C@@H](n2cnc3c(N)ncnc32)[C@H](O)[C@@H]1OP(=O)(O)O; assay: Methylmalonyl-CoA epimerase steady state kinetics (transcarboxylase/malate dehydrogenase coupled assay, A340); type: biochemical, Streptomyces coelicolor; details: other: 30° C, pH 6.9, (2RS)-methylmalonyl-CoA 27 μM to 160 μM, (2R) concentration assumed one-half of (2RS), epimerase activated with CoCl2
Description: (§1) Methylmalonyl-CoA epimerase assay. Enzyme activity was assayed at 30° C. using a modification of a reported method (27). The epimerase (0.54 mg/ml) was first activated with 100 μM CoCl2 at 4° C. for 1 h. Reaction mixtures (1.5 mL) contained 0.2 M potassium phosphate buffer pH 6.9, 0.1 M NH4SO4, 5 mM Na pyruvate, 0.08 mM (2RS)-methylmalonyl-CoA, 0.05 units transcarboxylase, 0.16 mM NADH, and 2.5 units of malate dehydrogenase. The reaction was initiated with (2RS)-methylmalonyl-CoA, and the decrease in A340 concomitant with consumption of the S-isomer was allowed to stabilize. Limiting epimerase was added to catalyze conversion of the remaining R- to S-isomer, and the initial rate and total decrease in A340 were monitored. For kinetic studies, -1.2 nM epimerase was incubated with varying amounts of (2RS)-methylmalonyl-CoA (27 μM to 160 μM). The (2R)-methylmalonyl-CoA concentrations were assumed to be one-half of the concentration of (2RS)-methylmalonyl-CoA.
S. coelicolor methylmalonyl-CoA epimerase gene. The P. shermanii methylmalonyl-CoA epimerase DNA sequence was used to search the S. coelicolor genomic database (www.sanger.ac.uk/Projects/S coelicolor) using the BLAST programs at the National Center for Biotechnology Information, NIH website (37), and S. coelicolor gene 8F4.02c was identified as a putative methylmalonyl-CoA epimerase. […]

[4] = substrate: C[C@H](C(=O)O)C(=O)SCCNC(=O)CCNC(=O)[C@H](O)C(C)(C)COP(=O)(O)OP(=O)(O)OC[C@H]1O[C@@H](n2cnc3c(N)ncnc32)[C@H](O)[C@@H]1OP(=O)(O)O; assay: as above; type: biochemical, Propionibacterium freudenreichii subsp. shermanii; details: other: 30° C, pH 6.9, (2RS)-methylmalonyl-CoA 27 μM to 160 μM, (2R) concentration assumed one-half of (2RS), epimerase activated with CoCl2
Description: as §1
Heterologous expression and purification of the epimerases. E. coli BL21(DE3) harboring either pKOS143-28-8 (P. shermanii epimerase) or pKOS117-174-A37 (S. coelicolor epimerase) was grown in 750 ml LB (100 μg/ml carbenicillin) at 37° C. until late log phase, then induced with IPTG to 1 mM final concentration and grown for an additional 3 h at 30° C. The cells were collected by centrifugation, and the pellets were stored at −80° C. […]

[5] = Methylmalonyl-CoA mutase assay in crude cell extracts (HPLC, conversion of methylmalonyl-CoA to succinyl-CoA); type: biochemical; details: cells grown without hydroxocobalamin; extracts not supplemented with B12
Description: The mutase assay was performed as follows. All operations were performed in the dark or under a red safelight. The pellet from 25 mL of culture was thawed, washed in buffer C (50 mM potassium phosphate pH 7.4, 5 mM EDTA, 10% glycerol), and resuspended in 0.5 mL of buffer C containing protease inhibitors (1 tablet per 10 mL of buffer). Following sonication on ice, the extract was clarified by centrifugation at 4° C. for 10 minutes at maximum speed in an Eppendorf microfuge; the supernatent was assayed. Enzyme assays contained, in a final volume of 100 μL, 0.2 mM (2R,2S)-methylmalonyl-CoA, mutase extract, and buffer C containing protease inhibitors. Reactions for assays with vitamin B12 were as above but contained 0.01 mM vitamin B12, in which case the mutase extract was incubated with the vitamin B12 in a total volume of 75 μL for 5 minutes at 30° C. prior to initiation of reaction with methylmalonyl-CoA. After the desired length of incubation at 30° C., the reaction was stopped by the addition of 50 μL of 10% trichloroacetic acid (TCA) and placed on ice for approximately 10 minutes. […] An aliquot (100 μL) of the supernatant was injected onto the HPLC to quantify conversion of methylmalonyl-CoA to succinyl-CoA. […]
Methylmalonyl-CoA mutase assay. […] After centrifugation, 100 μl of the supernatant was analyzed by HPLC to quantify conversion of methylmalonyl-CoA to succinyl-CoA.

For `C[C@@H](C(=O)O)C(=O)SCCNC(=O)CCNC(=O)[C@H](O)C(C)(C)COP(=O)(O)OP(=O)(O)OC[C@H]1O[C@@H](n2cnc3c(N)ncnc32)[C@H](O)[C@@H]1OP(=O)(O)O` [(2S)-methylmalonyl-CoA], the Km (DEBS or DEBS1+TE) is given as roughly 25 µM.

In the case of `CC(C)(COP(=O)(O)OP(=O)(O)OC[C@H]1O[C@@H](n2cnc3c(N)ncnc32)[C@H](O)[C@@H]1OP(=O)(O)O)[C@@H](O)C(=O)NCCC(=O)NCCSC(=O)CCC(=O)O` [succinyl-CoA], the “hydrolyzed to CoA” value [1] is reported as “comparable rate”.

In the case of `CC(C(=O)O)C(=O)SCCNC(=O)CCNC(=O)[C@H](O)C(C)(C)COP(=O)(O)OP(=O)(O)OC[C@H]1O[C@@H](n2cnc3c(N)ncnc32)[C@H](O)[C@@H]1OP(=O)(O)O` (stereo partly drawn) [methylmalonyl-CoA], the “hydrolyzed to CoA” value [1] is reported as “about 4%” and the spontaneous chemical epimerization [2] is reported as “approximately 3%”.

B1: Streptomyces coelicolor methylmalonyl-CoA epimerase, wild type, recombinant (gene 8F4.02c) (Streptomyces coelicolor A3(2)) (protein)
chain: MLTRIDHIGIACHDLDATVEFYRATYGFEVFHTEVNEEQGVREAMLKINDTSDGGASYLQLLEPTREDSAVGKWLAKNGEGVHHIAFGTADVDADAADIRDKGVRVLYDEPRRGSMGSRITFLHPKDCHGVLTELVTSAAVESPEH
notes: (2RS)-methylmalonyl-CoA substrate
B1 gave a Km [3] of 57 µM and a kcat [3] of 75 s⁻¹.

B2: Propionibacterium shermanii methylmalonyl-CoA epimerase (EC 5.1.99.1), wild type, recombinant, GenBank AY046899 (Propionibacterium freudenreichii subsp. … (protein)
chain: MSNEDLFICIDHVAYACPDADEASKYYQETFGWHELHREENPEQGVVEIMMAPAAKLTEHMTQVQVMAPLNDESTVAKWLAKHNGRAGLHHMAWRVDDIDAVSATLRERGVQLLYDEPKLGTGGNRINFMHPKSGKGVLIELTQYPKN
Molecule B2 has a Km [4] of 38 µM and a kcat [4] of 150 s⁻¹.

B3: mutase: methylmalonyl-CoA mutase (EC 5.4.99.2) from P. shermanii, expressed in E. coli (protein, UniProt P11652 2-638; P11653 2-728, looked up)
Methylmalonyl-CoA mutase … 1: SSTDQGTNPADTDDLTPTTLSLAGDFPKATEEQWEREVEKVLNRGRPPEKQLTFAECLKRLTVHTVDGIDIVPMYRPKDAPKKLGYPGVAPFTRGTTVRNGDMDAWDVRALHEDPDEKFTRKAILEGLERGVTSLLLRVDPDAIAPEHLDEVLSDVLLEMTKVEVFSRYDQGAAAEALVSVYERSDKPAKDLALNLGLDPIAFAALQGTEPDLTVLGDWVRRLAKFSPDSRAVTIDANIYHNAGAGDVAELAWALATGAEYVRALVEQGFTATEAFDTINFRVTATHDQFLTIARLRALREAWARIGEVFGVDEDKRGARQNAITSWRDVTREDPYVNILRGSIATFSASVGGAESITTLPFTQALGLPEDDFPLRIARNTGIVLAEEVNIGRVNDPAGGSYYVESLTRSLADAAWKEFQEVEKLGGMSKAVMTEHVTKVLDACNAERAKRLANRKQPITAVSEFPMIGARSIETKPFPAAPARKGLAWHRDSEVFEQLMDRSTSVSERPKVFLACLGTRRDFGGREGFSSPVWHIAGIDTPQVEGGTTAEIVEAFKKSGAQVADLCSSAKVYAQQGLEVAKALKAAGAKALYLSGAFKEFGDDAAEAEKLIDGRLFMGMDVVDTLSSTLDILGVAK
Methylmalonyl-CoA mutase … 2: STLPRFDSVDLGNAPVPADAARRFEELAAKAGTGEAWETAEQIPVGTLFNEDVYKDMDWLDTYAGIPPFVHGPYATMYAFRPWTIRQYAGFSTAKESNAFYRRNLAAGQKGLSVAFDLPTHRGYDSDNPRVAGDVGMAGVAIDSIYDMRELFAGIPLDQMSVSMTMNGAVLPILALYVVTAEEQGVKPEQLAGTIQNDILKEFMVRNTYIYPPQPSMRIISEIFAYTSANMPKWNSISISGYHMQEAGATADIEMAYTLADGVDYIRAGESVGLNVDQFAPRLSFFWGIGMNFFMEVAKLRAARMLWAKLVHQFGPKNPKSMSLRTHSQTSGWSLTAQDVYNNVVRTCIEAMAATQGHTQSLHTNSLDEAIALPTDFSARIARNTQLFLQQESGTTRVIDPWSGSAYVEELTWDLARKAWGHIQEVEKVGGMAKAIEKGIPKMRIEEAAARTQARIDSGRQPLIGVNKYRLEHEPPLDVLKVDNSTVLAEQKAKLVKLRAERDPEKVKAALDKITWAAGNPDDKDPDRNLLKLCIDAGRAMATVGEMSDALEKVFGRYTAQIRTISGVYSKEVKNTPEVEEARELVEEFEQAEGRRPRILLAKMGQDGHDRGQKVIATAYADLGFDVDVGPLFQTPEETARQAVEADVHVVGVSSLAGGHLTLVPALRKELDKLGRPDILITVGGVIPEQDFDELRKDGAVEIYTPGTVIPESAISLVKKLRASLDA
With B3 the mutase activity [5] was “no mutase activity was observed; also recorded: undetectable”.
